Molecular target: Type 2 (MM2) sCJD proteinase K-resistant PrP^Sc aggregates (human)
Experiment: sedimentation velocity in sucrose gradient (ultracentrifugation)

Type 2 (MM2) sCJD proteinase K-resistant PrP^Sc aggregates (complex)
stoichiometry N: > 600 monomers

— publication PMC4397081
